In patent US5622828, “High-affinity oligonucleotide ligands to secretory phospholipase A2 (sPLA2)” (Nexstar Pharmaceuticals, Inc.):
Numbering of substitutions follows the chain as printed.

T1: secretory phospholipase A2 (sPLA2) (Homo sapiens, UniProt P14555 P14555:21-144)
T1 sequence: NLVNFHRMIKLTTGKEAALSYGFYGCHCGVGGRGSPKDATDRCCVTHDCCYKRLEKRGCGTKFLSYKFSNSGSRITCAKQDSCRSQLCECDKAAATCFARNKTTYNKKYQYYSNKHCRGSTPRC

B1: NN19.11 (ssRNA)
RNA: GGGAAAAGAAGACCGGCCGGCGCCAUAGCCGAGAUCCGAGGUGUUGAACGAUAGACCAACCGAGAA
modifications: 2'-NH2 all C and U
B2: NS7 (ssRNA)
RNA: GGGAGGACGAUGCGGAGGAAAUGAAGUAGUGAGAGUAUAACAUGAUUAUGAAUACGUGAUGUGGCCAGACGACUCGCCCGA
modifications: 2'-NH2 all C and U
B3: 86tF (ssRNA)
RNA: GGGAGCUCAGAAUAAACGCUCAACGCCUCAUGCCAAUGCGGGAGGGUGGGUGGUUCGACAUGAGGCCCGGAUCCGGC
modifications: 2'-F all C and U
B4: NN11 (ssRNA)
RNA: GGGAAAAGCGAAUCAUACACAAGACCGGCCGGGGAAACCCGAGGUCCGAGGUAACGCAUGGCGCCUCACCGAGUCGCUCCGCCAGAGACCAACCGAGAA
modifications: 2'-NH2 all C and U
B5: NN16 (ssRNA)
RNA: B4 RNA with G44A
modifications: 2'-NH2 all C and U
B6: NS14 (ssRNA)
RNA: GGGAGGACGAUGCGGAAAUGUGUUAGUGAAUGAUUGAGAGAAGAUAGAUGAUGUUGAAGUCUGGCCAGACGACUCGCCCGA
modifications: 2'-NH2 all C and U
B7: NS13 (ssRNA)
RNA: GGGAGGACGAUGCGGUGAGCUUAGGAUAGGAGCAACAAGUAGAGUAGAGUGAUAACUAGGGUGGCCAGACGACUCGCCCGA
modifications: 2'-NH2 all C and U
B8: 73tF (ssRNA)
RNA: GGGAGCUCAGAAUAAACGCUCAACUUACAGUUCGGCUGAGAGAAGACGCAUACUUCGACAUGAGGCCCGGAUCCGGC
modifications: 2'-F all C and U
B9: NS1 (ssRNA)
RNA: GGGAGGACGAUGCGGAUAAGGAGGAGCAAGCGAGAAAUUGAGAAGUAACAAGAUCGACAUGGCCCCAGACGACUCGCCCGA
modifications: 2'-NH2 all C and U
B10: NN39 (ssRNA)
RNA: GGGAAAAGCGAAUCAUACACAAGACUGGUUGUGCGGACCCAGUGAGUGGGAGGACGUGAGGGUGGCAGCUGGGCUCCGCCAGAGACCAACCGAGAA
modifications: 2'-NH2 all C and U
B11: NS48 (ssRNA)
RNA: GGGAGGACGAUGCGGGCUAAGGGAAGACAAUGAGAUAGCAGACAAUCAACUACACCCAUGUGCGUCAGACGACUCGCCCGA
modifications: 2'-NH2 all C and U
B12: NS4 (ssRNA)
RNA: GGGAGGACGAUGCGGGUAGGGAUAAGCGAGUGUACAGCGAAUACGACUCGGAAUGCUUGGUGCGCCAGACGACUCGCCCGA
modifications: 2'-NH2 all C and U
B13: NN2 (ssRNA)
RNA: GGGAAAAGCGAAUCAUACACAAGAGACCGGCCAGCCAAGGCGCUGAGAUCCGAGGUUUCAGAACCCAUCGGGUUGGCUCCGCCAGAGACCAACCGAGAA
modifications: 2'-NH2 all C and U
B14: NS18 (ssRNA)
RNA: GGGAGGACGAUGCGGAAGUAGAUGAUGGAUUGAGAUGUAAGUGUCAGUAUGAAGAGUCUCUGGGCCAGACGACUCGCCCGA
modifications: 2'-NH2 all C and U
B15: 71 (ssRNA)
RNA: GGGAGCUCAGAAUAAACGCUCAAUCUCAUGCUCGUCGCACGGCGUAACCUAUUUCGACAUGAGGCCCGGAUCCGGC
B16: NN1 (ssRNA)
RNA: GGGAAAAGCGAAUCAUACACAAGACGGCGAGCAUGCGGCGAGUGGAGGGGGACUGAUGGAGGGCGAGACCGUGUGCUCCGCCAGAGACCAACCGAGAA
modifications: 2'-NH2 all C and U
B17: NN22 (ssRNA)
RNA: B16 RNA with G49A
modifications: 2'-NH2 all C and U
B18: NN10 (ssRNA)
RNA: GGGAAAAGCGAAUCAUACACAAGACCGGCCGGCGCCAUAGCCGAGAUCCGAGGUUGUACGAUGACAACUCAGUGCUCCGCCAGAGACCAACCGAGAA
modifications: 2'-NH2 all C and U
B19: NS6 (ssRNA)
RNA: GGGAGGACGAUGCGGAACUAAAAGACAGAGAGAAAACGACAAUACGAAGUACAUAUAACCCUGGCCAGACGACUCGCCCGA
modifications: 2'-NH2 all C and U
B20: 11tF (ssRNA)
RNA: GGGAGCUCAGAAUAAACGCUCAACUUACGGGUAAAGCCGAGAAAAUGUAUUGCUUCGACAUGAGGCCCGGAUCCGGC
modifications: 2'-F all C and U
B21: NS2 (ssRNA)
RNA: GGGAGGACGAUGCGGUAGUAACGGAUACUGAUCCGAGGUUAUAGUCACUAUAUCAUCCGCUGCGCCAGACGACUCGCCCGA
modifications: 2'-NH2 all C and U
B22: NS12 (ssRNA)
RNA: GGGAGGACGAUGCGGUGAAAGAGAAAGGUUGAGAUGAUUACAAGCGAAUUGGAUAAGUGUCUGGCCAGACGACUCGCCCGA
modifications: 2'-NH2 all C and U
B23: NN19.14 (ssRNA)
RNA: GGGAAAAGAAGACCGGCCGGCGCCAUAGCCGAGAUCCGAGGUGUUGAACGAUCCGAGAA
modifications: 2'-NH2 all C and U
B24: NN29 (ssRNA)
RNA: GGGAAAAGCGAAUCAUACACAAGACCGGCCCGGUGUGUAGCCGGAGAUCCGAGACUUGCUGAACGAGGUGCCACGGCUCCGCCAGAGACCAACCGAGAA
modifications: 2'-NH2 all C and U
B25: NN41 (ssRNA)
RNA: B24 RNA with U38C, G65A
modifications: 2'-NH2 all C and U
B26: NN30 (ssRNA)
RNA: GGGAAAAGCGAAUCAUACACAAGAGCCAGCGAGUGUCGACAGUGUGGGUGGAAGUGACGGGAGGAUUGGAGACGCUCCGCCAGAGACCAACCGAGAA
modifications: 2'-NH2 all C and U
B27: 72F (ssRNA)
RNA: GGGAGCUCAGAAUAAACGCUCAAGACCUCUGCUUACAGCCCGGCUGAGACACUUCGACAUGAGGCCCGGAUCCGGC
modifications: 2'-F all C and U
B28: NS39 (ssRNA)
RNA: GGGAGGACGAUGCGGGUAGGGAUGAAGUGCGAUGUGAAUCCGGGUGCUAGCGAUGAUGUGUGCCCCAGACGACUCGCCCGA
modifications: 2'-NH2 all C and U
B29: NS49 (ssRNA)
RNA: GGGAGGACGAUGCGGAUAAGGAUAAGAUCGAACGAGAGUGAACAAAGUUAAAUACAGUCUGGGGGCAGACGACUCGCCCGA
modifications: 2'-NH2 all C and U
B30: NN5 (ssRNA)
RNA: GGGAAAAGCGAAUCAUACACAAGACCGGCCCCGCCAAUCAAGGGAGAUCCGAGGAAUUGGAAUGUUUGUGAGUGAGCUCCGCCAGAGACCAACCGAGAA
modifications: 2'-NH2 all C and U
B31: NN18 (ssRNA)
RNA: GGGAAAAGCGAAUCAUACACAAGAGGAUGGCGGCAAGGCGCGAAAGGGAGGAUCGAGGAGGAAUCGCGUCAGGAGCUCCGCCAGAGACCAACCGAGAA
modifications: 2'-NH2 all C and U
B32: NN19.13 (ssRNA)
RNA: GGGAAAAGAAGACCGGCCGGCGCCAUAGCCGAGAUCCGAGGUGUUGAGACCAACCGAGAA
modifications: 2'-NH2 all C and U
B33: NN40 (ssRNA)
RNA: GGGAAAAGCGAAUCAUACACAAGACCCCUUGAGCUCGUGACGCAGGAGGAGGGCCGAGGAGGAAAGUCGUCACAGCUCCGCCAGAGACCAACCGAGAA
modifications: 2'-NH2 all C and U
B34: NS10 (ssRNA)
RNA: GGGAGGACGAUGCGGUGACAAAUGAGCAAGUAGCGAUAGAUGUGAUGGACAGAGACAGCCGGGGCCAGACGACUCGCCCGA
modifications: 2'-NH2 all C and U

Experiments:
Settings in all cases: tags: supplied by Eli Lilly
[1] = target: T1, secretory phospholipase A2 (sPLA2); experiment: filter; TBSC, 37 C
Experimental: (§1) The nitrocellulose filter partitioning method was used as described in SELEX Patent Applications to determine the affinity of RNA ligands for sPLA_2 and for other promins. Filter discs (nitrocellulose/cellulose acetate mixed matrix, 0.45 µm pore size, Millipore) were placed on a vacuum manifold and washed with 5 ml of TBSC buffer under vacuum. Reaction mixtures, containing ^32P labeled RNA pools and sPLA_2, were incubated in TBSC for 5 minutes at 37° C., filtered, and then immediately washed with 5 ml TBSC. The filters were air-dried and counted in a Beckman liquid scintillation counter without fluor.
(§2) The dissociation constants for representative members of families I–VI, orphan and other ligands were determined by nitrocellulose filter binding experiments and are listed in Table III. Unlike random RNA, all tested ligands from the 2'OH SELEXes bound biphasically.

[2] = target: T1, secretory phospholipase A2 (sPLA2); experiment: filter; monophasic; TBSC, 37 C
Experimental: as §1, §2

[3] = target: T1, secretory phospholipase A2 (sPLA2); experiment: filter; like random pool; TBSC, 37 C
Experimental: as §1, §2

[4] = target: T1, secretory phospholipase A2 (sPLA2); experiment: filter; biphasic, Kd2 82 nM, mole fraction 0.60; TBSC with 5 mM CaCl2, 37 C
Experimental: as §1, §2

[5] = hairpin with asymmetric internal loop

| Binder | Kd [1] [nM] | further results |
| --- | --- | --- |
| B1 | 0.5 |  |
| B2 | 18 |  |
| B3 |  | Kd [2]: 12 nM |
| B4 |  | Kd [2, 5]: 2.8 nM |
| B5 |  | Kd [2, 5]: 0.9 nM |
| B6 | 12 |  |
| B7 | 15 |  |
| B8 |  | Kd [2]: 14 nM |
| B9 | 42 |  |
| B10 |  | Kd [3]: 52 nM |
| B11 | 42 |  |
| GGGAAAAGAAGACCGGCCGGCGCCAUAGCCGAGAUCCGAGGUGUUGA (ssRNA, 2'-NH2 all C and U) [NN19.4] | 7.3 |  |
| B12 | 24 |  |
| B13 |  | Kd [2, 5]: 1.2 nM |
| B14 | 52 |  |
| B15 |  | Kd [4]: 1.3 nM |
| B16 | 21 |  |
| B17 | 36 |  |

| Binder | Kd [1] [nM] | further results |
| --- | --- | --- |
| B18 |  | Kd [2, 5]: 0.4 nM |
| B19 | 28 |  |
| B20 |  | Kd [2]: 7 nM |
| B21 | 22 |  |
| B22 | 40 |  |
| B23 | 1 |  |
| B24 |  | Kd [2, 5]: 2.5 nM |
| B25 |  | Kd [2, 5]: 1.2 nM |
| B26 | 23 |  |
| B27 |  | Kd [2]: 5.6 nM |
| B28 | 16 |  |
| B29 | 26 |  |
| B30 |  | Kd [2, 5]: 4.6 nM |
| B31 |  | Kd [3]: 71 nM |
| B32 | 2.2 |  |
| B33 | 31 |  |
| B34 | 22 |  |
